Experimental data taken from PMC5811216, “Cleavage activates Dispatched for Sonic Hedgehog ligand release” (eLife, 2018).
Where a chain is given by its changes, count along the chain named. In names and notes the source's numbering stands.

B1: DispHA, wild-type murine Dispatched 1 with a carboxyl-terminal HA tag (natural protein, mouse, UniProt Q3TDN0 1-1521, looked up)
chain: MAVISGSDSVLLSNGSISTSTSNPSPLSPSDGDLPAQHLGPRETPRTKASPNGCLQLNGTVKSSFLPLDNQRTPQTPTQCCHPCPYHHPVSSHSNHQECHPEAGLAASPALASCRMQPHSEYSASLCPNHSPVYQAAHCLQPSPSFCLHHPWPDHFQHQPVRQHLTIIRPSRPFKFPRSYAALLADWPVVVLGMCTLLIVVCALVGVLVPELPDFSDPLLGFEPRGTTIGQRLVTWNNMMRNTGYKATLANYPYKYAEEQARSHRDDRWSDDHHERERREVDWNFQKDSFFCDVPSDGYSRVVFASAGGETLWNLPAIKSMCDVDNSRIRSHPQFSDLCQRTTAVSCCPSWTLGNYIAILNNRSSCQKIVERDVSHTLKLLRTCAKHYQNGTLGPDCWDKAARRKDQLKCTNVPRKCTKYNAVYQILHYLVDKDFMTPKTADYAVPALKYSMLFSPTEKGESMMNIYLDNFENWNSSDGITTVTGIEFGIKHSLFQDYLLMDTVYPAIAIAIVLLIMCVYTKSMFITLMTMFAIISSLIVSYFLYRVVFNFEFFPFMNLTALIILVGIGADDAFVLCDVWNYTKFDKPRAETSEAVSVTLQHAALSMFVTSFTTAAAFYANYVSNITAIRCFGVYAGTAILVNYVLMVTWLPAVIVLHERYLLNIFTCFRKPQPQAYDKSCWAVLCQKCRRVLFAVSEASRIFFEKVLPCIVIKFRYLWLIWFLALTVGGAYIVCVNPKMKLPSLELSEFQVFRSSHPFERYDAEFKKLFMFERVHHGEELHMPITVIWGVSPEDSGDPLNPKSKGELTLDSTFNIASPASQAWILHFCQKLRNQTFFHQTEQQDFTSCFIETFKQWMENQDCDEPALYPCCSHCSFPYKQEVFELCIKKAIMELDRSTGYHLNNKTPGPRFDINDTIRAVVLEFQSTFLFTLAYEKMQQFYKEVDSWISHELSSAPEGLSRGWFVSNLEFYDLQDSLSDGTLIAMGLSVAVAFSVMLLTTWNIIISLYAIVSIAGTIFVTVGSLVLLGWELNVLESVTISVAVGLSVDFAVHYGVAYRLAPDPDREGKVIFSLSRMGSAIAMAALTTFVAGAMMMPSTVLAYTQLGTFMMLVMCVSWAFATFFFQCLCRCLGPQGTCGQIPFPTKLQCSPFSHTLSARPGDRGPSKTHAASAYSVDARGQKSQLEHEFYELQPLASHSCTSSEKTTYEEPHTCSEFFNGQAKNLRMPVPAAYSSELTKSPSSEPGSALLQSCLEQDTVCHFSLNPRCNCRDAYTHLQYGLPEIHCQQMGDSLCHKCASTAGGFVQIQSSVAPLKASHQAAEGLLHPAQHMLPPGMQNSRPRNFFLHSVQHFQAQENLGRTSTHSTDERLPRTAELSPPPSDSRSTESFQRACCHPENNQRRLCKSRDPGDTEGSGGTKSKVSGLPNQTDKEEKQVEPSLLQTDETVNSEHLNHNESNFTFSHLPGEAGCRSCPNSPQSCRSIMRSKCGTEDCQTPNLEANVPAVPTHSDLSGESLLIKTL
notes: Dispatched 1 (Disp), mouse; Disp1 cDNA from RIKEN introduced into Not1-Xba1 sites of pCDNA3; The lysate holds both Disp175 and the cleaved Disp145; On the native gel there was a ~480 kDa fraction (trimer) and ~750 kDa fractions; also called pCDNA3 Dispatched WT HA; pCDNA-DispHA; source: NIH3T3, transfected, in lysate (1% DDM); not shown: HA, C-terminal, kept
B2: DispCSHA, cleavage site mutant (R279A, E280A) of murine Dispatched 1 with a carboxyl-terminal HA tag (natural protein, mouse, UniProt Q3TDN0 1-1521, looked up)
chain: B1 chain with R279A, E280A
notes: Dispatched 1 (Disp), mouse; Disp1 cDNA from RIKEN in pCDNA3; convertase motif disrupted by R279A, E280A; also called DispHA-CS; pCDNA-DispCSHA; source: NIH3T3, transfected, in lysate (1% DDM); not shown: HA, C-terminal, kept

Target: the molecule itself
Assay: native gel or EMSA; NIH3T3 lysates in NativePAGE sample buffer with 1% DDM, Benzonase treated; 4-20% NativePAGE Bis-Tris gel; anti-HA western blot

Protein	stoichiometry N
B1	3
B2	3
